According to US20080072349A1 (PIONEER HI BRED INTERNATIONAL, published 2008):

Columns and labels:
Assay in all cases: cell-based or functional assay
[1] = biological target: T1, purified deactivated Arabidopsis Rubisco (Ribulose-1,5-bisphosphate carboxylase/oxygenase) (Arabidopsis, UniProt O03042 3-479; P10795 55-180)
[2] = biological target: T1, purified deactivated Arabidopsis …; remark: listed apart in the source
[3] = biological target: T1, purified deactivated Arabidopsis …; remark: listed apart in the source

Binder	Activation of deactivated Rubisco assay, T.S 45° C./25° C. [1]	Activation of deactivated Rubisco assay, T.S 45 min at 40° C./15 min at 25° C. [1]	Rubisco activation under catalytic conditions assay, T.S 40° C./25° C. [1]	Thermostability (%) [2]	activation state of Rubisco at 40° C. relative to reactions at 25° C. [3]
Rubisco Activase derived polypeptide 183H12 (enzyme) MVKEDKQTDGDRWRGLAYDTSDDQQDITRGKGMVDSVFQAPMGTGTHHAVLSSYEYVSQGLRQYNLDNMMDGFYIAPAFMDKLVVHITKNFLTLPNIKVPLILGIWGGKGQGKSFQCELVMAKMGINPIMMSAGELESGNAGEPAKLIRQRYREAADLIKKGKMCCLFINDLDAGAGRMGGTTQYTVNNQMVNATLMNIADNPTNVQLPGMYNKEENARVPIICTGNDFSTLYAPLIRDGRMEKFYWAPTREDRIGVCKGIFRTDKIKDEDIVRLVDQFPGQSIDFFGALRARVYDDEVRKFVESLGVEKIGKRLVNSREGPPVFEQPEMTYEKLMEYGNMLVMEQENVKRVQLAETYLSQAALGDANADAIGRGTFYGKTEEKEPSKLE	52%	54%	77%	82%	
Rubisco Activase derived polypeptide 184B2 (enzyme) MVKEDKQTDGDRWRGLAYDTSDDQQDITRGKGMVDSVFQAPMGTGTHHAVLSSYEYVSQGLRQYNLDNMMDGFYIAPAFMDKLVVHITKNFLTLPNIKVPLILGIWGGKGQGKSFQCELVMAKMGINPIMMSAGELESGNAGEPAKLIRQRYREAADLIKKGKMCCLFINDLDAGAGRMGGTTQYTVNNQMVNATLMNIADNPTNVQLPGMYNKEENARVPIICTGNDFSTLYAPLIRDGRMEKFYWAPTREDRIGVCKGIFRTDKIKDEDIVTLVDQFPGQSIDFFGALRARVYDDEVRKFVESLGVENIGKRLVNSREGPPVFEQPEMTYEKLMEYGNMLVMEQENVKRVQLAETYLSQAALGDANADAIGRGTFYGKTEEKEPSKLE				84%	
Rubisco Activase derived polypeptide 301C7 (enzyme) MVKEDKQTDGDRWRGLAYDTSDDQQDITRGKGMVDSVFQAPMGTGTHHAVLSSYEYVSQGLRQYNLDNMMDGFYIAPAFMDKLVVHITKNFLTLPNIKVPLILGIWGGKGQGKSFQCELVMAKMGINPIMMSAGELESGNAGEPAKLIRQRYREAADLIKKGKMCCLLINDLDAGAGRMGGTTQYTVNNQMVNATLMNIADNPTNVQLPGMYNKEENARVPIICTGNDFSTLYAPLIRDGRMEKFYWAPTREDRIGICKGIFRTDKIKDEDIVTLVDQFPGQSIDFFGALRARVYDDEVRKFVESLGVENIGKRLVNSREGPPVFEQPEMTYEKLMEYGNMLVMEQENVKRVQLAETYLSQAALGDANADAIGRGTFYGKTEEKEPSKLE	84%	92%	83%	98%	
Rubisco Activase derived polypeptide 214A4 (enzyme) MVKEDKQTDGDRWRGLAYDTSDDQQDITRGKGMVDSVFQAPTGTGTHHAVLSSYEYVSQGLRQYNLDNMMDGFYIAPAFMDKLVVHITKNFLTLPNIKVPLILGIWGGKGQGKSFQCELVMAKMGINPIMMSAGELESGNAGEPAKLIRQRYREAADLIKKGKMCCLFINDLDAGAGRMGGTTQYTVNNQMVNATLMNIADNPTNVQLPGMYNKEENARVPIICTGNDFSTLYAPLIRDGRMEKFYWAPTREDRIGVCKGIFRTDKIKDEDIVRLVDQFPGQSIDFFGALRARVYDDEVRKFVESLGVEKIGKRLVNSREGPPVFEQPEMTYEKLMEYGNMLVMEQENVKRVQLAETYLSQAALGDANADAIGRGTFYGKTEEKEPSKLE	58%	65%	74%	92%	
Rubisco Activase derived polypeptide 182B11 (enzyme) MVKEDKQTDGDRWRGLAYDTSDDQQDITRGKGMVDSVFQAPMGTGTHHAVLSSYEYVSQGLRQYNLDNMMDGFYIAPAFMDKLVVHITKNFLTLPNIKVPLILGIWGGKGQGKSFQCELVMAKMGINPIMISAGELESGNAGEPAKLIRQRYREAADLIKKGKMCCLFINDLDAGAGRMGGTTQYTVNNQMVNATLMNIADNPTNVQLPGMYNKEENARVPIICTGNDFSTLYAPLIRDGRMEKFYWAPTREDRIGVCKGIFRTDKIKDEDIVTLVDQFPGQSIDFFGALRARVYDDEVRKFVESLGVEKIGKRLVNSREGPPVFEQPEMTYEKLMEYGNMLVMEQENVKRVQLAETYLSQAALGDANADAIGRGTFYGKTEEKEPSKLE				84%	
Rubisco Activase derived polypeptide 126H4 (enzyme) MVKEDKQTDGDRWRGLAYDTSDDQQDITRGKGMVDSVFQAPMGTGTHHAVLSSYEYVSQGLRQYNLDNMMDGFYIAPAFMDKLVVHITKNFLTLPNIKVPLILGIWGGKGQGKSFQCELVMAKMGINPIRMSAGELESGNAGEPAKLIRQRYREAADLIKKGKMCCLFINDLDAGAGRMGGTTQYTVNNQMVNATLMNIADNPTNVQLPGMYNKEENARVPIICTGNDFSTLYAPLIRDGRMEKFYWAPTREDRIGVCKGIFRTDKIKDEDIVTLVDQFPGQSIDFFGALRARVYDDEVRKFVESLGVEKIGKRLVNSREGPPVFEQPEMTYEKLMEYGNMLVMEQENVKRVQLAETYLSQAALGDANADAIGRGTFYGKTEEKEPSKLE				97%	
Rubisco Activase derived polypeptide 382D8 (enzyme) MVKEDKQTDGDRWRGLAYDTSDDQQDITRGKGMVDSVFQAPMGTGTHHAVLSSYEYVSQGLRQYNLDNMMDGFYIAPAFMDKLVVHITKNFLTLPNIKVPLILGIWGGKGQGKSFQCELVMAKMGINPIMVSAGELESGNAGEPAKLIRQRYREAADLIKKGKMCCLFINDLDAGAGRMGGTTQYTVNNQMVNATLMNIADNPTNVQLPGMYNKEENARVPIICTGNDFSTLYAPLIRDGRMEKFYWAPTREDRIGICKGIFRTDKIKDEDIVTLVDQFPGQSIDFFGALRARVYDDEVRKFVESLGVENIGKRLVNSREGPPVFEQPEMTYEKLMEYGNMLVMEQENVKRVQLAETYLSQAALGDANADAIGRGTFYGKTEEKEPSKLE	86%	85%	93%	90%	
Rubisco Activase derived polypeptide 383A12 (enzyme) MVKEDKQTDGDRWRGLAYDTSDDQQDITRGKGMVDSVFQAPMGTGTHHAVLSSYEYVSQGLRQYNLDNMMDGFYIAPAFMDKLVVHITKNFLTLPNIKVPLILGIWGGKGQGKSFQCELVMAKMGINPIMMSAGELESGNAGEPAKLIRQRYREAADLIKKGKMCCLLINDLDAGAGRMGGTTQYTVNNQMVNATLMNIADNPTNVQLPGMYNKEENARVPIICTGNDFSTLYAPLIRDGRMEKFYWAPTREDRIGICKGIFRTDKIKDEDIVRLVDQFPGQSIDFFGALRARVYDDEVRKFVESLGVENIGKRLVNSREGPPVFEQPEMTYEKLMEYGNMLVMEQENVKRVQLAETYLSQAALGDANADAIGRGTFYGKTEEKEPSKLE	92%	88%	97%	103%	
wild type Rubisco Activase (Arabidopsis, short form RCA1) (enzyme) MVKEDKQTDGDRWRGLAYDTSDDQQDITRGKGMVDSVFQAPMGTGTHHAVLSSYEYVSQGLRQYNLDNMMDGFYIAPAFMDKLVVHITKNFLTLPNIKVPLILGIWGGKGQGKSFQCELVMAKMGINPIMMSAGELESGNAGEPAKLIRQRYREAADLIKKGKMCCLFINDLDAGAGRMGGTTQYTVNNQMVNATLMNIADNPTNVQLPGMYNKEENARVPIICTGNDFSTLYAPLIRDGRMEKFYWAPTREDRIGVCKGIFRTDKIKDEDIVTLVDQFPGQSIDFFGALRARVYDDEVRKFVESLGVEKIGKRLVNSREGPPVFEQPEMTYEKLMEYGNMLVMEQENVKRVQLAETYLSQAALGDANADAIGRGTFYGKTEEKEPSKLE	50%	32%	67%	66%	70%
Rubisco Activase derived polypeptide 301H3 (enzyme) MVKEDKQTDGDRWRGLAYDTSDDQQDITRGKGMVDSVFQAPMGTGTHHAVLSSYEYVSQGLRQYNLDNMMDGFYIAPAFMDKLVVHITKNFLTLPNIKVPLILGIWGGKGQGKSFQCELVMAKMGINPIMMSAGELESGNAGEPAKLIRQRYREAADLIKKGKMCCLFINDLDAGAGRMGGTTQYTVNNQMVNATLMNIADNPTNVQLPGMYNKEENARVPIICTGNDFSTLYAPLIRDGRMEKFYWAPTREDRIGICKGIFRTDKIKDEDIVRLVDQFPGQSIDFFGALRARVYDDEVRKFVESLGVENIGKRLVNSREGPPVFEQPEMTYEKLMEYGNMLVMEQENVKRVQLAETYLSQAALGDANADAIGRGTFYGKTEEKEPSKLE	89%	75%	78%	89%	
Rubisco Activase derived polypeptide 079H6 (enzyme) MVKEDKQTDGDRWRGLAYDTSDDQQDITRGKGMVDSVFQAPTGTGTHHAVLSSYEYVSQGLRQYNLDNMMDGFYIAPAFMDKLVVHITKNFLTLPNIKVPLILGIWGGKGQGKSFQCELVMAKMGINPIMISAGELESGNAGEPAKLIRQRYREAADLIKKGKMCCLFINDLDAGAGRMGGTTQYTVNNQMVNATLMNIADNPTNVQLPGMYNKEENARVPIICTGNDFSTLYAPLIRDGRMEKFYWAPTREDRIGVCKGIFRTDKIKDEDIVTLVDQFPGQSIDFFGALRAKVYDDEVRKFVESLGVEKIGKRLVNSREGPPVFEQPEMTYEKLMEYGNMLVMEQENVKRVQLAETYLSQAALGDANADAIGRGTFYGKTEEKEPSKLE	63%	66%	82%	88%	
